Positions count from the first letter of the chain named. Numbers in names are those of the source.
Test system: Lenti-X 293T cells
Test: YFP fluorescence quenching anion reporter plate reader assay of engineered receptors stimulated with acetylcholine or a non-native ligand
Type: cell-based
Details: for percent quench of YFP fluorescence, 30 nM TC-6683: TC-6683 30 nM; for percent quench of YFP fluorescence, 300 nM TC-6683: TC-6683 300 nM; for percent quench of YFP fluorescence, 3 uM TC-6683: TC-6683 3 uM; for percent quench of YFP fluorescence, 30 uM TC-6683: TC-6683 30 uM; for percent quench of YFP fluorescence, 100 uM TC-6683: TC-6683 100 uM; for percent quench of YFP fluorescence, 10 uM ach: acetylcholine 10 uM; for percent quench of YFP fluorescence, 100 uM ach: acetylcholine 100 uM; for percent quench of YFP fluorescence, 1 mM ach: acetylcholine 1 mM; for percent quench of YFP fluorescence, 3 mM ach: acetylcholine 3 mM
In short: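 YFP quench was followed for about 1 min 43 s after ligand delivered in iodide-based ECS, pH 7.2. Values are end-of-read fluorescence (last 10 s) divided by the pre-ligand baseline (15 s). Cells were LX293T, transfected with receptor DNA a day before the assay.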

B1: CODA945: engineered chimeric LGIC receptor, Q139E in SEQ ID NO: 33 (protein)
chain: MRCSPGGVWLALAASLLHVSLQGEFQRKLYKELVKNYNPLERPVANDSQPLTVYFSLSLLQIMDVDEKNQVLTTNIWLQMSWTDHYLQWNVSEYPGVKTVRFPDGQIWKPDILLYNSADERFDATFHTNVLVNSSGHCEYLPPGIFKSSCPMDLKNFPMDVQTCKLKFGSWSYGGWSLDLQMQEADISGYIPNGEWDLVGIPGKRSERFYECCKEPYPDVTFTVTMRRRMGYYLIQMYIPSLLIVILSWISFWINMDAAPARVGLGITTVLTMTTQSSGSRASLPKVSYVKAIDIWMAVCLLFVFSALLEYAAVNFVSRQHKELLRFRRKRRHHKSPMLNLFQEDEAGEGRFNFSAYGMGPACLQAKDGISVKGANNSNTTNPPPAPSKSPEEMRKLFIQRAKKIDKISRIGFPMAFLIFNMFYWIIYKIVRREDVHNQ
modifications: synthetic sequence of chimeric LGIC
- YFP fluorescence quenching using CNL001 (1 nM CNL001, first column): 6.65%
- YFP fluorescence quenching using CNL001 (1 nM CNL001, second column): 13.512%
- YFP fluorescence quenching using TC-5619/Bradanicline (3 nM brd): 14.15%
- YFP fluorescence quenching using Varenicline (3 nM var, first column): 8.207
- YFP fluorescence quenching using Varenicline (3 nM var, second column): 7.835
- YFP fluorescence quenching using CNL001 (10 nM CNL001, first column): 78.678%
- YFP fluorescence quenching using CNL001 (10 nM CNL001, second column): 82.723%
- YFP fluorescence quenching using TC-5619/Bradanicline (30 nM brd): 78.18%
- YFP fluorescence quenching using Facinicline (30 nM fac): −7.16
- YFP fluorescence quenching using Varenicline (30 nM var, first column): 9.509
- YFP fluorescence quenching using Varenicline (30 nM var, second column): 10.204
- YFP fluorescence quenching using CNL001 (50 nM CNL001, first column): 84.91%
- YFP fluorescence quenching using CNL001 (50 nM CNL001, second column): 84.849%
- YFP fluorescence quenching using ABT-126 (50 nM abt): −8.27%
- YFP fluorescence quenching using CNL001 (100 nM CNL001, first column): 85.046%
- YFP fluorescence quenching using CNL001 (100 nM CNL001, second column): 84.642%
- YFP fluorescence quenching using CNL002 (100 nM CNL002): 60.5%
- YFP fluorescence quenching using ABT-126 (100 nM abt): 4.76%
- YFP fluorescence quenching using AZD-0328 (100 nM azd0328): −5.79%
- YFP fluorescence quenching using ABT-126 (300 nM abt): 30.88%
- YFP fluorescence quenching using AZD-0328 (300 nM azd0328): 58.47%
- YFP fluorescence quenching using TC-5619/Bradanicline (300 nM brd): 76.8%
- YFP fluorescence quenching using Facinicline (300 nM fac): 71.17
- YFP fluorescence quenching using Varenicline (300 nM var, first column): 9.818
- YFP fluorescence quenching using Varenicline (300 nM var, second column): 12.539
- YFP fluorescence quenching using Varenicline (500 nM var, first column): 16.762
- YFP fluorescence quenching using Varenicline (500 nM var, second column): 15.21
- YFP fluorescence quenching using CNL001 (1 uM CNL001, first column): 85.493%
- YFP fluorescence quenching using CNL001 (1 uM CNL001, second column): 86.071%
- YFP fluorescence quenching using CNL002 (1 uM CNL002): 75.41%
- YFP fluorescence quenching using ABT-126 (1 uM abt): 60.66%
- YFP fluorescence quenching using TC-6987 (1 uM tc6987): −0.97
- YFP fluorescence quenching using Varenicline (1 uM var, first column): 48.292
- YFP fluorescence quenching using Varenicline (1 uM var, second column): 54.096
- YFP fluorescence quenching using TC-6987 (10 uM tc6987): 21.53
- YFP fluorescence quenching using CNL002 (30 uM CNL002): 77.46%
- YFP fluorescence quenching using AZD-0328 (30 uM azd0328): 66.57%
- YFP fluorescence quenching using Facinicline (30 uM fac): 72.14
- YFP fluorescence quenching using TC-6987 (500 uM tc6987): 7.39
- percent quench of YFP fluorescence, 30 nM TC-6683: −26.47%
- percent quench of YFP fluorescence, 300 nM TC-6683: −18.62%
- percent quench of YFP fluorescence, 3 uM TC-6683: −13.39%
- percent quench of YFP fluorescence, 30 uM TC-6683: −16.6%
- percent quench of YFP fluorescence, 100 uM TC-6683: −12.89%
- percent quench of YFP fluorescence, 10 uM ach: −1.25%
- percent quench of YFP fluorescence, 100 uM ach: 71.21%
- percent quench of YFP fluorescence, 1 mM ach: 71.79%
- percent quench of YFP fluorescence, 3 mM ach: 76.04%

B2: CODA377: engineered chimeric LGIC receptor, S172D in SEQ ID NO: 33 (protein)
chain: B1 chain with E139Q, S172D
modifications: synthetic sequence of chimeric LGIC
- YFP fluorescence quenching using CNL001 (1 nM CNL001, first column): 67.544%
- YFP fluorescence quenching using CNL001 (1 nM CNL001, second column): 74.209%
- YFP fluorescence quenching using TC-5619/Bradanicline (1 nM brd): 0.77%
- YFP fluorescence quenching using TC-5619/Bradanicline (3 nM brd): −4.59%
- YFP fluorescence quenching using Varenicline (3 nM var, first column): −3.433
- YFP fluorescence quenching using Varenicline (3 nM var, second column): −5.737
- YFP fluorescence quenching using CNL001 (10 nM CNL001, first column): 74.346%
- YFP fluorescence quenching using CNL001 (10 nM CNL001, second column): 75.816%
- YFP fluorescence quenching using TC-5619/Bradanicline (10 nM brd): 0.06%
- YFP fluorescence quenching using TC-5619/Bradanicline (30 nM brd): −10.48%
- YFP fluorescence quenching using Facinicline (30 nM fac): 4.93
- YFP fluorescence quenching using Varenicline (30 nM var, first column): −5.319
- YFP fluorescence quenching using Varenicline (30 nM var, second column): −6.175
- YFP fluorescence quenching using CNL001 (50 nM CNL001, first column): 77.068%
- YFP fluorescence quenching using CNL001 (50 nM CNL001, second column): 76.99%
- YFP fluorescence quenching using ABT-126 (50 nM abt): −1.53%
- YFP fluorescence quenching using CNL001 (100 nM CNL001, first column): 79.352%
- YFP fluorescence quenching using CNL001 (100 nM CNL001, second column): 77.865%
- YFP fluorescence quenching using CNL002 (100 nM CNL002): 59.35%
- YFP fluorescence quenching using ABT-126 (100 nM abt): 18.18%
- YFP fluorescence quenching using AZD-0328 (100 nM azd0328): 65.04%
- YFP fluorescence quenching using TC-5619/Bradanicline (100 nM brd): 0.25%
- YFP fluorescence quenching using ABT-126 (300 nM abt): 59.15%
- YFP fluorescence quenching using AZD-0328 (300 nM azd0328): 81.73%
- YFP fluorescence quenching using TC-5619/Bradanicline (300 nM brd): −10.61%
- YFP fluorescence quenching using Facinicline (300 nM fac): 84.13
- YFP fluorescence quenching using Varenicline (300 nM var, first column): −4.135
- YFP fluorescence quenching using Varenicline (300 nM var, second column): −8.614
- YFP fluorescence quenching using Varenicline (500 nM var, first column): −6.062
- YFP fluorescence quenching using Varenicline (500 nM var, second column): −6.125
- YFP fluorescence quenching using CNL001 (1 uM CNL001, first column): 80.272%
- YFP fluorescence quenching using CNL001 (1 uM CNL001, second column): 79.432%
- YFP fluorescence quenching using CNL002 (1 uM CNL002): 79.26%
- YFP fluorescence quenching using ABT-126 (1 uM abt): 72.28%
- YFP fluorescence quenching using TC-5619/Bradanicline (1 uM brd): 3.82%
- YFP fluorescence quenching using TC-6987 (1 uM tc6987): −9.74
- YFP fluorescence quenching using Varenicline (1 uM var, first column): −14.134
- YFP fluorescence quenching using Varenicline (1 uM var, second column): −15.373
- YFP fluorescence quenching using TC-6987 (3 uM tc6987): −14.04
- YFP fluorescence quenching using TC-6987 (5 uM tc6987): −0.95
- YFP fluorescence quenching using Facinicline (10 uM fac): 66.96
- YFP fluorescence quenching using TC-6987 (10 uM tc6987): −7.41
- YFP fluorescence quenching using CNL002 (30 uM CNL002): 79.96%
- YFP fluorescence quenching using AZD-0328 (30 uM azd0328): 82.3%
- YFP fluorescence quenching using Facinicline (30 uM fac): 85.29
- YFP fluorescence quenching using TC-6987 (30 uM tc6987): −16.12
- YFP fluorescence quenching using TC-6987 (50 uM tc6987): −12.79
- YFP fluorescence quenching using TC-6987 (100 uM tc6987): −11.77
- YFP fluorescence quenching using TC-6987 (300 uM tc6987): −19.68
- YFP fluorescence quenching using TC-6987 (500 uM tc6987): −17.02
- percent quench of YFP fluorescence, 30 nM TC-6683: −20.23%
- percent quench of YFP fluorescence, 300 nM TC-6683: −13.94%
- percent quench of YFP fluorescence, 3 uM TC-6683: −14.17%
- percent quench of YFP fluorescence, 30 uM TC-6683: 1.86%
- percent quench of YFP fluorescence, 100 uM TC-6683: 43.61%
- percent quench of YFP fluorescence, 10 uM ach: −3.19%
- percent quench of YFP fluorescence, 100 uM ach: 0.07%
- percent quench of YFP fluorescence, 1 mM ach: 71.7%
- percent quench of YFP fluorescence, 3 mM ach: 76.95%

Reference: patent publication US20240317834A1, “COMPOSITIONS AND METHODS FOR NEUROLOGICAL DISEASES” (CODA BIOTHERAPEUTICS, INC., priority 2020, published 2024)
